The labels stand for the following.
T1: biotinylated hOX40L (R&D Systems, biotinylated in house) (human, UniProt P23510 51-183, biotinylated with Sulfo-NHS-LC-Biotin, sites not stated)
T1 construct: same bought protein as m10, biotinylated; also called biotinylated OX40L
T1 sequence: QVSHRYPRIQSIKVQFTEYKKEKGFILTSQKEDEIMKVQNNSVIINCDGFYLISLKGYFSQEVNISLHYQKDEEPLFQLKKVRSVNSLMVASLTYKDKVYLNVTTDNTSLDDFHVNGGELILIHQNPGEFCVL

B1: OX40L056 (VHH, not shown: small tags and cut ends)
VHH: DVQLVESGGGLVQPGGSLRLSCAASRSIGRLDRMGWYRHRPGKPRELVATITGGSSINYADSVKGRFTISRDNSKNTVYLQMNSLRPEDTAVYYCNFNKYVTSRDTWGQGTLVTVSS
B2: OX40L082 (VHH, not shown: small tags and cut ends)
VHH: B1 VHH with D1E, K43E, A60G, R71I
B3: recombinant human OX40L (extracellular domain, R&D Systems) (ligand)
chain: T1 sequence
notes: also called hOX40L; rec. hOX40L

In assay [1] the target is B3. As to the kind of experiment: cell-based or functional assay.
Assay [2] has as its target T1, biotinylated hOX40L (R&D Systems, …). As to the kind of experiment: hOX40L/hOX40 AlphaScreen, assay 3, native. The method, then:
(§1) Next, streptavidin donor beads were added and incubated for an additional 1 hour. Fluorescence was measured by reading plates on the EnVision Multilabel Plate Reader using an excitation wavelength of 680 nm and an emission wavelength of 520 nm.
(§2) In the TSA assay, Nanobodies were diluted to a concentration of 0.2 mg/ml and melting temperature (Tm) was determined at different pH by stepwise increase in temperature in presence of Sypro Orange, a dye that binds to […] residues that become exposed upon unfolding of the protein, using the Lightcycler (Roche) for detection. […] In SEC analysis, the Nanobodies were analyzed on a Phenomenex matrix to allow detection of multimers, aggregates or ‘stickyness’.
Background: Alpha assays give light when donor and acceptor beads are brought close together.

For assay [3] the target is unchanged. As to the kind of experiment: hOX40L/hOX40 AlphaScreen, assay 2, heated at Tm+10 C. As for the experimental part: as §1, §2
The target is the same in assay [4]. As to the kind of experiment: hOX40L/hOX40 AlphaScreen, assay 3, heated at Tm+10 C. As for the experimental part:
as §1, §2

Assay [5] has the same target. As to the kind of experiment: hOX40L/hOX40 AlphaScreen, assay 2, native; assay 2, native (not Tm + 10° C.).
Assay [6] has the same target. As to the kind of experiment: hOX40L/hOX40 AlphaScreen.
A further assay has as its target T2, OX40L01E07.
T2 construct: monovalent Nanobody from E. coli; not shown: C-terminal c-myc and His6 tag
As to the kind of experiment: competition ELISA: fixed concentration of OX40L01E07 pre-incubated with a concentration series of soluble hOX40L, then added to biotinylated hOX40L captured on neutravidin; bound Nanobody detected with rabbit anti-VHH antiserum and HRP goat anti-rabbit IgG, OD450nm. The method, then:
The binding of OX40L blocking Nanobodies to other TNF family members was tested in a competition ELISA.
Detection was done using sTMB (SDT Reagents, Baesweiler, Germany), the reaction was stopped with 1M HCl and absorbance was determined at 450 nm.

As usually defined, the IC50 is the concentration at which inhibition is half-maximal.

Numbering of substitutions follows the chain as printed.

T2 sequence (VHH, as listed by the source): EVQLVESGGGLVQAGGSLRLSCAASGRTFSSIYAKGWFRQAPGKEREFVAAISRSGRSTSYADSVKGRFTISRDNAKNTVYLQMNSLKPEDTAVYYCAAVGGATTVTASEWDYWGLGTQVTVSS

Regarding B1, the “IC50, T cell assay with rec. hOX40L” value in assay [1] was 135 nM. Also, the IC50 in assay [2], in assay [3], in assay [4] and in assay [5] was 1.12 nM throughout.
For B2, the “fold decrease in potency compared with the parental Nanobody OX40L15B07” value in assay [6] was about 2 fold. Also, the IC50 in assay [2] and in assay [4] was 0.14 nM in each case.
Consider B3, for which the “IC50 (read off the curve)” value with OX40L01E07 is about 800 pM.

The values are drawn from US20150218281A1 (Ablynx, published 2015).
